The text below walks through data of publication PMC4574351, “Tubulin cofactors and Arl2 are cage-like chaperones that regulate the soluble αβ-tubulin pool for microtubule dynamics” (eLife, 2015).

For test [1], the target named is TBC-DEG complex (TBCD-TBCE-Arl2 GTPase heterotrimer) (S. cerevisiae) (UniProt P40987).
For test [2] the target is unchanged. Briefly: SEC-MALS; WTC-03S5 column; purified TBC-DEG (subunits co-expressed and co-purified), αβ-tubulin, TBCC and their complexes; ternary complex with GDP·ALFx (wild type) or GTP (Q73L).
Test [3] has the same target. The source holds these as a separate data set.
Test [4] concerns the target TBC-DEG:αβ-tubulin complex (S. cerevisiae | porcine) (UniProt P40987).

Chain of TBC-DEG complex (TBCD-TBCE-Arl2 GTPase heterotrimer) (S. cerevisiae) (P40987 whole entry, chain 1 of 3): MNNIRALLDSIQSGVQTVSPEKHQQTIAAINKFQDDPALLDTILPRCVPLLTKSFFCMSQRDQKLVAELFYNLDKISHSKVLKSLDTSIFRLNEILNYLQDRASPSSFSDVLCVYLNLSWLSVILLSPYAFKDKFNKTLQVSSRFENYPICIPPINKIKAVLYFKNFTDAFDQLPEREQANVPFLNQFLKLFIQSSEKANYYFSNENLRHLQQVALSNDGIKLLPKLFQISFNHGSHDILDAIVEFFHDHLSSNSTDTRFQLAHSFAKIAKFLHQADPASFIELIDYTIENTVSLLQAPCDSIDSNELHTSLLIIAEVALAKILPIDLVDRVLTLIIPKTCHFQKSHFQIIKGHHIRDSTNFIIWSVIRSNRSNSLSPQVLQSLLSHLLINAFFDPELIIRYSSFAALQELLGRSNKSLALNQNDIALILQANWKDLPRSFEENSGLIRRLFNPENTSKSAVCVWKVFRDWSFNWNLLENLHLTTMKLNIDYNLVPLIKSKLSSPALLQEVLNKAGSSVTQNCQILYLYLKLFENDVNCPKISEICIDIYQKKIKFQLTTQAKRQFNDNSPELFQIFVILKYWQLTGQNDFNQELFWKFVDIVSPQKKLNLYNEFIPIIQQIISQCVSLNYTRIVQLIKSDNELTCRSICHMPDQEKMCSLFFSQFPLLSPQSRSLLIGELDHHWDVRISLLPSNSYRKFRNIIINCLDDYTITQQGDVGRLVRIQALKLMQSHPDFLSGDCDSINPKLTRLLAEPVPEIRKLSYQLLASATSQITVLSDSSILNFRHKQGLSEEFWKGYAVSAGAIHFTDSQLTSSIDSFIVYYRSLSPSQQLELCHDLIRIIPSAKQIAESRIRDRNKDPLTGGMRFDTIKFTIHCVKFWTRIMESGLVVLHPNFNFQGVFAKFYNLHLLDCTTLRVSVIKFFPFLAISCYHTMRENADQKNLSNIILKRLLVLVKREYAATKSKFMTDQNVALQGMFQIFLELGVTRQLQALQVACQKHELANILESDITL
Chain of TBC-DEG complex (TBCD-TBCE-Arl2 GTPase heterotrimer) (S. cerevisiae) (P39937 whole entry, chain 2 of 3, further chain): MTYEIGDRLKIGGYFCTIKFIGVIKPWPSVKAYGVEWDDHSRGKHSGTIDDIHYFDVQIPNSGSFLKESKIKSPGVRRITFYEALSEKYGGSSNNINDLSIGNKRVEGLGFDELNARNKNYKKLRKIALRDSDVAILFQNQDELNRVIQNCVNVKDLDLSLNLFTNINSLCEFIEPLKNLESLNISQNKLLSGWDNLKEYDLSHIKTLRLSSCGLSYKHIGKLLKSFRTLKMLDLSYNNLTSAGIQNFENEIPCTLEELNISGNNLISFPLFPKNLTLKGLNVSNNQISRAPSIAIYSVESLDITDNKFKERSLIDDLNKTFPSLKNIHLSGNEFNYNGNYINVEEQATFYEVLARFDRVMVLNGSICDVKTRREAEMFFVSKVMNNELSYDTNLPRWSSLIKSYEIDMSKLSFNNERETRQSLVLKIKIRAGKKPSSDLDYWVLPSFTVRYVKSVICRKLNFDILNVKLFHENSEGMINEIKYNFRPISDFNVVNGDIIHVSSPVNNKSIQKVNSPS
Chain of TBC-DEG complex (TBCD-TBCE-Arl2 GTPase heterotrimer) (S. cerevisiae) (P39110 whole entry, chain 3 of 3, further chain): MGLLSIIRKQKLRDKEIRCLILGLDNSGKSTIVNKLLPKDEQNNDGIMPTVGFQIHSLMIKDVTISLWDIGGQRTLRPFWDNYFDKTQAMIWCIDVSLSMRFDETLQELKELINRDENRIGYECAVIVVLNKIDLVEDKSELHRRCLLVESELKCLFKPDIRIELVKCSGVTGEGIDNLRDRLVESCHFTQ

Consider “porcine brain αβ-tubulin dimer (from UniProt P02550 1-451; P02554 1-445) (complex)”, for which, in test [1], the steady-state GTP hydrolysis kcat (malachite green), 1 μM TBC-DEG:1 μM αβ-tub is 6670 M⁻¹ s⁻¹; the steady-state GTP hydrolysis kcat, 1 μM TBC-DEG and 1 μM TBCC with αβ-tubulin titrated 0.25-3.0 μM (kcat 1.10 to 2.77) worked out at 46200 M⁻¹ s⁻¹. In test [2], this substance gave a stoichiometry N of 1. In addition, the steady-state GTP hydrolysis kcat at 3 μM αβ-tubulin, 1:3:1 TBCC:αβ-tubulin:TBC-DEG (number as in the text) in test [3] worked out at 0.05 s⁻¹.
In turn, “Tubulin cofactor C (TBCC), S. cerevisiae Cin2p (from UniProt P46670 1-268) (natural protein)” returned a steady-state GTP hydrolysis kcat (malachite green), 1 μM TBC-DEG:1 μM TBCC in test [1] of 12800 M⁻¹ s⁻¹.
Turning to “TBCC loop-deleted mutant Δ233-245 (from UniProt P46670 1-232; P46670 246-267) (natural protein)”, the steady-state GTP hydrolysis kcat, 1 μM TBC-DEG:1 μM TBCC-Δ233-245:1 μM αβ-tub in test [4] was 5670 M⁻¹ s⁻¹.

As usually defined, the stoichiometry N is a count of units in the complex or per binding partner.
